Experimental findings from patent US20190062422A1 (MorphoSys, published 2019) are described below.

Assay [1] concerns the target T1, mouse IL17C (mouse, UniProt Q8K4C5 17-194, limits assumed, biotinylated in the receptor interaction, inhibition and serum stability assays (sites not given)).
T1 construct: Bought recombinant protein; About 22 kDa reduced and about 40 kDa non-reduced on SDS-PAGE; Used plain (coated, ELISA) or biotinylated; also called biotinylated mouse IL17C; biotin-IL17C
T1 sequence (looked up): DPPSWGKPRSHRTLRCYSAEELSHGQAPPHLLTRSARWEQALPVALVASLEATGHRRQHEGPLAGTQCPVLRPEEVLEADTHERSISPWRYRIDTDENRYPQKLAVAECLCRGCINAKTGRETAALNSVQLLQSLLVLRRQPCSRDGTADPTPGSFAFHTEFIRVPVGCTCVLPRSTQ
As to the kind of experiment: solution equilibrium titration (SET), ECL based, monovalent Fab fragment (Fab_FH format). The method, then: Monovalent affinities of anti-IL17C antibodies were determined by solution equilibrium titration (SET) using Fab fragments. Affinity determination in solution was basically performed as described in the literature (Friquet et al., (1985) J. Immunol. Meth. 77: 305-19). In order to improve the sensitivity and accuracy of the SET method, it was transferred from classical ELISA to ECL based technology (Haenel et al. (2005) Anal Biochem. 339.1: 182-84). Binders were expressed and purified in Fab_FH format.

Assay [2] deals with T2, mouse IL-17B (mouse, UniProt Q9QXT6 23-180, limits assumed).
T2 sequence (looked up): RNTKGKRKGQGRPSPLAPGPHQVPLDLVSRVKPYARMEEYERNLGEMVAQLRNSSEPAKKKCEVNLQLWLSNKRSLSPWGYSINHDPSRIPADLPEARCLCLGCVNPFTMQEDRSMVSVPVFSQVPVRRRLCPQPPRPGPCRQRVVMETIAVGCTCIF
As to the kind of experiment: ELISA, purified chimeric human/mouse IgG2a on msIL-17B. (An ELISA detects its analyte on a solid surface through an enzyme-linked reagent.)

Assay [3] concerns the target T1, mouse IL17C. As to the kind of experiment: ELISA on biotin-IL17C captured on avidin: chimeric IgG2a incubated 24 h at 37°C in mouse serum against freshly diluted IgG2a. On the procedure:
96 well Maxisorp plates (Nunc; #442404) were coated with avidin at a concentration of 1 μg/ml in PBS overnight at 4° C. The next day, anti-IL17 chimeric IgG2a were incubated in mouse serum for 24 h at 37° C. at a final concentration 100 μg/mL. After the incubation step the antibodies were diluted 1:100 in LowCross buffer (Candor Bioscience; #100500). As a reference the same set of antibodies were freshly diluted in LowCross buffer+1% mouse serum and incubated for 30 min at RT. Avidin coated plates were incubated with blocking buffer (Superblock blocking buffer from Pierce, #37515) and subsequently 100 μL of 0.1 μg/mL biotin-IL17C in LowCross buffer was added to blocked wells. After a washing step a serial dilution of the serum-incubated and freshly diluted IgGs was added. Binding of IgGs was detected by anti-mouse-IgG2a POD conjugated detection antibody (diluted 1:5000 in LowCross buffer) using TMB One Component HRP as substrate. The reaction was stopped by adding 1M HCl and absorbance was measured at 450 nm.

For assay [4], the target named is T3, human IL17C (human, UniProt Q9P0M4 19-197).
T3 sequence: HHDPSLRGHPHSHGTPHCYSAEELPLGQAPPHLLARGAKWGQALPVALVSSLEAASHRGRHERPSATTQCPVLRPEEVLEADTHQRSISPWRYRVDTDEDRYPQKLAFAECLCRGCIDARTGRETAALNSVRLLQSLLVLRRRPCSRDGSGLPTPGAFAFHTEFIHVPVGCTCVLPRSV
As to the kind of experiment: ELISA, purified chimeric human/mouse IgG2a on huIL-17C.

The target in assay [5] is T1, mouse IL17C. As to the kind of experiment: ELISA, purified chimeric human/mouse IgG2a titrated on mouse IL17C, n=1-2. The method, then:
All purified chimeric human-mouse chimeric IgG2a antibodies were titrated on mouse IL17C for EC₅₀ determination in ELISA starting with a concentration of 100 nM. EC₅₀ values on mouse IL17C were determined in 1 to 3 independent experiments.

The target in assay [6] is T1, mouse IL17C. As to the kind of experiment: mIL17C - mIL-17RE inhibition assay (MSD): human/mouse IgG2a pre-incubated with biotinylated mouse IL17C, binding to coated mouse IL17RE/Fc detected by Streptavidin-ECL. On the procedure: To determine inhibitory activity of purified anti-IL17C human-mouse chimeric IgG2a in a mIL-17 RE interaction assay, Maxisorp™ 384 well MSD plates were coated with 30 μL mouse IL17RE/Fc at 75 ng/mL in PBS at 4° C. overnight. The next day 25 μL of a serial antibody dilution (concentrations from 0.001 to 100 nM) were pre-incubated for 30 min at RT with an equal volume of biotinylated mouse IL17C at 0.125 nM. After blocking of plates for 1 h with 2.5% BSA in PBST, preformed antibody-ligand complexes were added for 1 h to coated IL17RE/Fc and receptor binding was detected via Streptavidin-ECL using MSD Sector Imager.
To characterize the antibodies in human/mouse IgG2a format in more detail, for each candidate IC₅₀ values were determined in the IL-17 receptor E inhibition assay as described herein above in up to 4 independent experiments.

B1: MOR12756 (antibody, V domains shown)
VH: QVQLQQSGPGLVKPSQTLSLTCAISGDSVSDNSVAWNWIRQSPSRGLEWLGRIYYRSKWYNDYAVSVKSRITINPDTSKNQFSLQLNSVTPEDTAVYYCAREVLLFPARSYGTGMDVWGQGTLVTVSS
VL: DIELTQPPSVSVSPGQTASITCSGDNLPSKYVHWYQQKPGQAPVLVIYDDNERPSGIPERFSGSNSGNTATLTISGTQAEDEADYYCGVADMPRQMKVFGGGTKLTVLG
notes: Tested as human-mouse chimeric IgG2a (human variable, mouse constant regions); Potential N-linked glycosylation sites were removed by site-directed mutagenesis
On to B1, for which, in assay [1], the binding result is “no binding”.

B2: MOR12759 (antibody, V domains shown)
VH: EVQLVQSGAEVKKPGESLKISCKGSGYSFNNYWIAWVRQMPGKGLEWMGFIYPSNSATQYSPSFQGQVTISADKSISTAYLQWSSLKASDTAMYYCARDNEYSDSYFDVWGQGTLVTVSS
VL: DIVLTQSPATLSLSPGERATLSCRASQIVSSYLAWYQQKPGQAPRLLIYDASSRATGIPARFSGSGSGTDFTLTISSLEPEDFAVYYCQQSVNFPTTFGQGTKVEIKR
notes: as for B1
As a reminder, the EC50 is the concentration that produces a half-maximal response. Low values mean higher potency in that assay, high ones lower potency in that assay. Broadly, the Kd is the equilibrium constant for the complex coming apart. One may read the IC50 as the concentration that gives 50% inhibition. On to B2, for which the binding result in assay [2] and in assay [4] was “no binding” throughout. For the same molecule, the “Coefficient of variation (Mouse Serum Stability Assay 24h/37°C)” value (shortened to “Coefficient of variation”) in assay [3] was 8.8%. Moreover, it took 0.29 nM to reach a half-maximal effect in assay [5] (EC50). Also, the Kd in assay [1] was 0.22 nM. Further, in assay [6], the IC50 worked out at 0.028 nM.

B3: MOR12762 (antibody, V domains shown)
VH: EVQLVQSGAEVKKPGESLKISCKGSGYSFNNYWIAWVRQMPGKGLEWMGFIYPSNSATQYSPSFQGQVTISADKSISTAYLQWSSLKASDTAMYYCARDNEYSDSYFDVWGQGTLVTVSS
VL: DIVLTQSPATLSLSPGERATLSCRASQIVSSYLAWYQQKPGQAPRLLIYDASSRATGIPARFSGSGSGTDFTLTISSLEPEDFAVYYCQQSEQVPTTFGQGTKVEIKR
notes: as for B1
Regarding B3, the binding result in assay [2] and in assay [4] was “no binding” throughout. In assay [3], the “Coefficient of variation” value was found to be 2.43%. Further, the EC50 in assay [5] stood at 0.4 nM. This molecule came in with a Kd in assay [1] of 0.096 nM. In assay [6], this molecule yielded an IC50 of 0.009 nM.

B4: MOR12760 (antibody, V domains shown)
VH: EVQLVQSGAEVKKPGESLKISCKGSGYSFNNYWIAWVRQMPGKGLEWMGFIYPSNSATQYSPSFQGQVTISADKSISTAYLQWSSLKASDTAMYYCARDNEYSDSYFDVWGQGTLVTVSS
VL: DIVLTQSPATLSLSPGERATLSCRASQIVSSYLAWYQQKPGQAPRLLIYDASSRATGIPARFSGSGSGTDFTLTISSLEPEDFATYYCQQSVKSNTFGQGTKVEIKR
notes: as for B1
In the case of B4, the binding result in assay [2] and in assay [4] was “no binding” throughout. Moreover, in assay [3], the “Coefficient of variation” value amounted to 35.3%. Further, in assay [5], the EC50 is 0.27 nM. Besides, the IC50 in assay [6] amounted to 0.122 nM.

B5: MOR12740 (antibody, V domains shown)
VH: QVQLVQSGAEVKKPGSSVKVSCKASGGTFSIYAISWVRQAPGQGLEWMGGIIPILGIANYAQKFQGRVTITADESTSTAYMELSSLRSEDTAVYYCARDATHSYYHDYWGQGTLVTVSS
VL: DIALTQPASVSGSPGQSITISCTGTSSDVGSYETVSWYQQHPGKAPKVMIYEVSDRPSGVSNRFSGSKSGNTASLTISGLQAEDEADYYCGSFAHWGSWVFGGGTKLTVLG
notes: as for B1
Regarding B5, the binding result in assay [2] and in assay [4] was “no binding” in each case. This molecule showed an EC50 in assay [5] of 1.14 nM. The molecule also came in with a Kd in assay [1] of 0.17 nM. The same molecule gave an IC50 in assay [6] of 3.49 nM.

B6: MOR12757 (antibody, V domains shown)
VH: EVQLLESGGGLVQPGGSLRLSCAASGFTFSSYAMSWVRQAPGKGLEWVSFISSGGSETFYADSVKGRFTISRDNSKNTLYLQMNSLRAEDTAVYYCARVSYIYYYSWVLFDVWGQGTLVTVSS
VL: DIQMTQSPSSLSASVGDRVTITCRASQGIGTALNWYQQKPGKAPKLLIYDVSSLQSGVPSRFSGSGSGTDFTLTISSLQPEDFATYYCQQGLFLPFTFGQGTKVEIKR
notes: as for B1
In the case of B6, the binding result in assay [1] was “no binding”.

B7: MOR12741 (antibody, V domains shown)
VH: QVQLVQSGAEVKKPGSSVKVSCKASGGTFSSYAISWVRQAPGQGLEWMGMIMPEVGMADYAQKFQGRVTITADESTSTAYMELSSLRSEDTAVYYCARDFIAVGSLEIWHYYYGLDVWGQGTLVTVSS
VL: DIELTQPPSVSVSPGQTASITCSGDNIGEHYASWYQQKPGQAPVLVISYDNERPSGIPERFSGSNSGNTATLTISGTQAEDEADYYCQSWTSQKPDYVFGGGTKLTVLG
notes: as for B1
For B7, the binding result in assay [2] and in assay [4] was “no binding” each time. In addition, the “Coefficient of variation” value in assay [3] was found to be 13%. Besides, in assay [5], the response was half-maximal at 0.47 nM (EC50).

B8: MOR12758 (antibody, V domains shown)
VH: EVQLVQSGAEVKKPGESLKISCKGSGYSFTDYWISWVRQMPGKGLEWMGAIDPTDSYTRYSPSFQGQVTISADKSISTAYLQWSSLKASDTAMYYCARWYTSHPYYEGRYPMDVWGQGTLVTVSS
VL: DIALTQPASVSGSPGQSITISCTGTSSDVGHYNYVSWYQQHPGKAPKLMIYGVTKRPSGVSNRFSGSKSGNTASLTISGLQAEDEADYYCASADEWPTLHVFGGGTKLTVLG
notes: as for B1
In the case of B8, in assay [1], the binding result is reported as “no binding”.

B9: MOR12751 (antibody, V domains shown)
VH: QVQLQQSGPGLVKPSQTLSLTCAISGDSVSSNSAAWNWIRQSPSRGLEWLGVIYYRSKWYINYADSVKSRITINPDTSKNQFSLQLNSVTPEDTAVYYCAREGIVGGWFAYWGQGTLVTVSS
VL: DIELTQPPSVSVSPGQTASITCSGDKLGSKIAHWYQQKPGQAPVLVIYDDNERPSGIPERFSGSNSGNTATLTISGTQAEDEADYYCQSWDYLSWSVVFGGGTKLTVL
notes: as for B1
For the molecule B9, the binding result in assay [2] and in assay [4] was “no binding” each time. Further, the “Coefficient of variation” value in assay [3] stood at 3.75%. This molecule also had an EC50 in assay [5] of 0.39 nM. The same molecule yielded an IC50 in assay [6] of 0.16 nM.

B10: MOR12755 (antibody, V domains shown)
VH: QVQLQQSGPGLVKPSQTLSLTCAISGDSVSSNSAAWNWIRQSPSRGLEWLGKTYYRSTWSNDYAESVKSRITINPDTSKNQFSLQLNSVTPEDTAVYYCAREMDSLTRSASSIAFDYWGQGTLVTVSS
VL: DIELTQPPSVSVSPGQTASITCSGDNLREHYVHWYQQKPGQAPVLVIYDDTERPSGIPERFSGSNSGNTATLTISGTQAEDEADYYCATRDWSNVVFGGGTKLTVLG
notes: as for B1
Regarding B10, in assay [1], the binding result is “no binding”.
